PMC4660199 (Nature Communications, 2015)
Values belong to the binder of their own block, whether it stands above or below them. Where no end group is shown, it is not given here.

Key:
Details in all cases: both partners purified
[1] = target: T1, full-length cpSRP43 (UniProt O22265 57-373); test: ITC; VP-ITC, 20 °C, 20 mM Hepes (pH 7.5), 150 mM NaCl, 5 mM MgCl2, 0.25 mM TCEP; 0.01–0.1 mM in the cell, 0.1–1.0 mM in the syringe; duplicate or triplicate
T1 construct: cpSRP43, the 43-kDa subunit of the chloroplast signal recognition particle (CD1, Ank1-4, CD2, CD3); called full-length in the results; the chloroplast transit peptide may be absent from the recombinant protein (surmise); also called cpSRP43 wild-type; source: E. coli Rosetta (DE3) pLysS, purified (HisTrap, size-exclusion chromatography)

[2] = target: T2, cpSRP43 CD2CD3 (UniProt O22265 264-373, 15N,13C labelled where it is the observed partner in NMR); test: crystal structure; His6–Trx–CD2CD3–(GS)3–A3CT IV on one chain, 2.8 Å, two molecules in the asymmetric unit; 20% PEG 3350, 0.2 M Ca(OAc)2, 18 °C
T2 construct: cpSRP43 chromodomains 2 and 3, residues 264-373; His6-Trx is joined through a cleavable TEV site; In the crystal structure the same range stands inside the fusion m15; also called cpSRP43 CD2CD3 deletion construct; source: E. coli Rosetta2 pLysS, purified (as His6-Trx fusion with a cleavable TEV site; Superdex75)
T2 sequence (looked up): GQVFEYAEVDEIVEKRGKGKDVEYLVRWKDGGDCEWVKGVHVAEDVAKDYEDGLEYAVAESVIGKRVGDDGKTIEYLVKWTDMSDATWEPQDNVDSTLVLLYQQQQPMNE

[3] = target: T2, cpSRP43 CD2CD3; test: SAXS; CD2CD3 alone and with 7 × molar excess of A3CT IV, 298 K
[4] = target: T3, A3CT (Alb3 C-terminal tail) produced as His6-Trx fusion for NMR (UniProt Q8LBP4 363-462, 15N,13C labelled where it is the observed partner in NMR); test: NMR titration; 1H,15N HSQC chemical shift perturbations of the labelled partner on stepwise addition of the unlabelled ligand, 298 K, 20 mM Na-phosphate (pH 6.5), 150 mM NaCl
T3 construct: Alb3 insertase C-terminal tail; the A3CT constructs encode residues 363-462; this one is used for all NMR rows; also called Trx–A3CT
T3 sequence (looked up): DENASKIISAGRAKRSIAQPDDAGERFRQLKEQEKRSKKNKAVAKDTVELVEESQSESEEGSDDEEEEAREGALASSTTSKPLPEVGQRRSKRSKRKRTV

B1: A3CT motif II peptide (peptide)
chain: IISAGRAKRSI
modifications: The exact ends of the peptide are not printed. 369-379 is the region the text gives as including motif II, so the assayed peptide may be longer. Terminal chemistry is not stated.
Kd [1]: 150 µM

B4: cpSRP43 CD3 (domain or fragment, UniProt O22265 316-373, looked up)
chain: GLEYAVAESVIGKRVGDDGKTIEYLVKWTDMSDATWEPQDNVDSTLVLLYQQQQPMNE
notes: Gly316 is the N-terminal residue in the CD3 constructs; also called CD3 only; cpSRP43 CD3 deletion construct; source: E. coli Rosetta2 pLysS, purified (as His6-Trx fusion with a cleavable TEV site; Superdex75); not shown: His6, N-terminal, cleaved; thioredoxin (Trx), N-terminal, cleaved
binding result [4]: binds

Second part, the binder after the results:

binding result [2]: binds
B2: A3CT IV (residues 440–461) as joined to CD2CD3 in the fusion construct (peptide, UniProt Q8LBP4 440-461, looked up)
peptide: TTSKPLPEVGQRRSKRSKRKRT
notes: Alb3 C-terminal tail motif IV, residues 440-461; residues 453-461 are ordered in the structure, 454-KRSKRKR-460 is threaded into CD3; Stood on one chain with CD2CD3 through a (GS)3 linker; also called A3CT motif IV; motif IV; source: E. coli Rosetta2 (DE3) pLysS, purified as part of His6–Trx–CD2CD3–IV

binding result [3]: binds
B3: A3CT IV peptide (peptide, UniProt Q8LBP4 434-461, looked up)
peptide: GALASSTTSKPLPEVGQRRSKRSKRKRT
modifications: also: 15N,13C labelled where it is the observed NMR partner
notes: Alb3 C-terminal 28 residues including motif IV, residues 434-461 (holds 454-KRSKRKR-460); The ITC methods also say that peptides were purchased from PSL; also called A3CT motif IV; motif IV; source: E. coli BL21, purified (His6-GST fusion, TEV cleavage, HisTrap, Superdex75); not shown: His6, N-terminal, cleaved; GST, N-terminal, cleaved
